Experimental data from patent publication US20170247475A1 (Boehringer Ingelheim, published 2017).
Substitutions are numbered along the chain they refer to. Each block holds one binder with its values, some of them ahead of it.

What was measured:
[1] = target: VEGF; assay: cell-based or functional assay
[2] = target: T1, human VEGF-B (human, UniProt P49765-2 22-188, limits assumed); assay: solid phase binding ELISA
T1 construct: also called hVEGF-B
T1 sequence (looked up): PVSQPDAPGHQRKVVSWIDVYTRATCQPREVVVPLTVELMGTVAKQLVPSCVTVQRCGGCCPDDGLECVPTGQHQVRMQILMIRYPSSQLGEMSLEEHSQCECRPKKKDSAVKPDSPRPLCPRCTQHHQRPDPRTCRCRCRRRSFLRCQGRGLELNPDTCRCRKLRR
Protocol: (§1) Binding to VEGFB, VEGFC, VEGFD and PIGF is assessed via a solid phase binding ELISA. In brief, VEGFB, VEGFC, VEGFD and PIGF (R&D Systems, Minneapolis, Minn., USA) are coated overnight at 4° C. at 1 μg/mL in a 96-well MaxiSorp plate (Nunc, Wiesbaden, Germany). Wells are blocked with a casein solution (1% in PBS). […] As positive controls serial dilutions of the appropriate receptors are taken along and detected with horseradish peroxidase (HRP)-conjugated goat anti-human IgG, Fc specific antibody (Jackson Immuno Research Laboratories Inc., West Grove, Pa., USA) and a subsequent enzymatic reaction in the presence of the substrate TMB (3,3′,5,5′-tetramentylbenzidine) (Pierce, Rockford, Ill., USA).

[3] = target: T2, human VEGF-C (human, UniProt P49767 103-227); assay: solid phase binding ELISA
T2 construct: also called hVEGF-C
T2 sequence (looked up): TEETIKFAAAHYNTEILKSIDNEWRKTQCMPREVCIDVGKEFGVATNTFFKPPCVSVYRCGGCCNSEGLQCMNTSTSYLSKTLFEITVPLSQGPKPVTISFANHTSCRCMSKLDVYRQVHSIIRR
Protocol: as §1

[4] = target: T3, human VEGF-D (human, UniProt O43915 93-201); assay: solid phase binding ELISA
T3 construct: also called hVEGF-D
T3 sequence (looked up): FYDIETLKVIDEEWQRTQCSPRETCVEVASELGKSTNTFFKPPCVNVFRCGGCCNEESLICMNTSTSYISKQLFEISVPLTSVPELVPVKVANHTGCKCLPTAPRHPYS
Protocol: as §1

[5] = target: T4, human PIGF (human, UniProt P49763-2 21-149, limits assumed); assay: solid phase binding ELISA
T4 construct: also called hPIGF; PLGF
T4 sequence (looked up): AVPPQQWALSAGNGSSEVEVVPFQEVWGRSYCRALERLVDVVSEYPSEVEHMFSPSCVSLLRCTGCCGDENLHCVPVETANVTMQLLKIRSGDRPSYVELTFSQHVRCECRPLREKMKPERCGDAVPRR
Protocol: as §1

[6] = target: T5, recombinant human VEGF165 (human, UniProt P15692-4 27-191); assay: hVEGF165/hVEGFR1-Fc competition AlphaScreen
T5 construct: also called hVEGF165; rhVEGF165
Protocol: (§2) Finally, streptavidin donor beads (20 μg/ml) are added and after 1 hour of incubation in the dark, fluorescence is measured on the Envision microplate reader.
Target sequence in this assay (P15692 other isoform, or with tags, fused parts or gaps limits assumed): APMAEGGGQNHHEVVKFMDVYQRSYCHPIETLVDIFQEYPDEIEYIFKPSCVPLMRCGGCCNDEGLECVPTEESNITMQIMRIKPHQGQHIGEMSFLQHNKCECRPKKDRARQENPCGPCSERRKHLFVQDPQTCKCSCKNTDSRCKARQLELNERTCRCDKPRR

[7] = target: T5, recombinant human VEGF165; assay: hVEGF165/hVEGFR2-Fc competition AlphaScreen
Protocol: as §2
Target sequence in this assay (P15692 other isoform, or with tags, fused parts or gaps limits assumed): as above

[8] = target: T5, recombinant human VEGF165; assay: hVEGF165/hVEGFR1-Fc competition ELISA
Target sequence in this assay (P15692 other isoform, or with tags, fused parts or gaps limits assumed): as above

[9] = target: T5, recombinant human VEGF165; assay: SPR Biacore T100, hVEGF165 on chip, Two State Reaction model
Protocol: Samples are injected for 2 min and allowed to dissociate up to 20 min at a flow rate of 45 μI/min. In between sample injections, the chip surface is regenerated with 100 mM HCl. HBS-EP+(Hepes buffer pH7.4+EDTA) is used as running buffer. Binding curves are fitted using a Two State Reaction model by Biacore T100 Evaluation Software v2.0.1.
^{(a)}Heterogeneous binding curve resulting in no 1:1 fit, curves are fitted using a Two State Reaction model by Biacore T100 Evaluation Software v2.0.1
Target sequence in this assay (P15692 other isoform, or with tags, fused parts or gaps limits assumed): as above

[10] = target: T5, recombinant human VEGF165; assay: VEGF165/VEGFR2 AlphaScreen
Target sequence in this assay (P15692 other isoform, or with tags, fused parts or gaps limits assumed): as above

[11] = target: T5, recombinant human VEGF165; assay: AlphaScreen competition, 0.05 nM hVEGF165 and 0.05 nM hVEGFR2-Fc; blocked: hVEGFR2-Fc
[12] = target: T5, recombinant human VEGF165; assay: AlphaScreen competition, 0.05 nM hVEGF165 and 0.05 nM hVEGFR1-Fc; blocked: hVEGFR1-Fc
[13] = target: T5, recombinant human VEGF165; assay: AlphaScreen competition, 0.05 nM hVEGF165 and 0.05 nM hVEGFR2-Fc; blocked: hVEGFR2-Fc; remark: listed apart in the source
Target sequence in this assay (P15692 other isoform, or with tags, fused parts or gaps limits assumed): as above

[14] = target: T5, recombinant human VEGF165; assay: competition AlphaScreen, blocking of hVEGF165 binding to hVEGFR1-Fc
[15] = target: T5, recombinant human VEGF165; assay: ka1; SPR Biacore T100 on hVEGF165
[16] = target: T5, recombinant human VEGF165; assay: AlphaScreen competition, 0.05 nM hVEGF165 and 0.05 nM hVEGFR2-Fc; blocked: hVEGFR2-Fc; remark: listed apart in the source
[17] = target: T5, recombinant human VEGF165; assay: AlphaScreen competition, 0.05 nM hVEGF165 and 0.05 nM hVEGFR1-Fc; blocked: hVEGFR1-Fc; remark: listed apart in the source
[18] = target: T5, recombinant human VEGF165; assay: competition AlphaScreen, blocking of hVEGF165 binding to hVEGFR2-Fc

- IC50 (nM), VEGF HUVEC Erk phosphorylation assay [1]: 0.37 nM
- binding result [2]: no binding (tested: 500 nM-32 pM)
- binding result [3]: no binding (tested: 500 nM-32 pM)
- binding result [4]: no binding (tested: 500 nM-32 pM)
- binding result [5]: no binding (tested: 500 nM-32 pM)
- % inhibition [6]: 41%
- IC50 [6]: 0.9 nM
- % inhibition [7]: 100%
- IC50 [7]: 0.16 nM
- % inhibition [8]: 64%
- IC50 [8]: 0.5 nM
- Kd [9]: 0.7 nM
- kd2 [9]: 0.00024 s⁻¹
- % inhibition [10]: 100%
- IC50 [10]: 0.169 nM
B1: VEGFBII23B04 (VHH)
VHH: EVQLVESGGGLVQTGDSLRLSCEVSGRTFSSYSMGWFRQAQGKEREFVVAISKGGYKYDSVSLEGRFTISKDNAKNTVYLQINSLKPEDTAVYYCASSRAYGSSRLRLADTYEYWGQGTQVTVSS
notes: also called VEGFBII23B4; VEGFBII23B04 (wt)

- IC50 (read off the curve) [11]: ~0.4 nM
- IC50 (read off the curve) [12]: ~0.8 nM
- IC50 (read off the curve) [13]: ~0.4 nM
- IC50 (read off the curve) [14]: ~0.4 nM
- kon [15]: 260000 M⁻¹ s⁻¹
- IC50 (read off the curve) [16]: ~0.5 nM
- IC50 (read off the curve) [17]: ~0.8 nM
- IC50 (read off the curve) [18]: ~0.4 nM
B2: VEGFBII038 (VHH)
VHH: B1 VHH with E1D, T14P, D16G, E23A, V24A, Q41P, S60A, K71R, K86R, Q120L
notes: also called VEGFBII0038; VEGFBII00038
